± gives the standard error. For some assays here: Variants at the floor of the assay were thinned out.
B1: glmS ribozyme (parent)
chain: AUAAAAGCGCCAGAACUACAGAAAUGUAGUUGACGAGGAGGAGGUUUAUCGAAUUUUCGGCGGAUGCCUCCAAA

Columns and labels:
Details in all cases: with glucosamine-6-phosphate
[1] = variants of: B1; assay: kcat; higher = faster cleavage; RNA array
Summary of the method: (§1)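 Glucosamine-6-phosphate (40 μM to 10 mM) in HEPES/KCl/Mg(OAc)2 buffer was flowed over sequenced MiSeq chips, and tiles were imaged over ~14 h. Barcoded ribozyme variants there had been transcribed in situ by E. coli RNA polymerase and were tracked through a hybridised Cy3 probe at 37 °C. One- or two-exponential decay fits to per-tile medians, normalised to baseline and to non-cleaving reference variants, gave kobs. kcat and KM came from weighted Michaelis–Menten fits across concentrations.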

[2] = variants of: B1; assay: self-cleavage kobs at 160 uM GlcN6P; higher = faster cleavage; RNA array
Summary of the method: as §1

[3] = variants of: B1; assay: self-cleavage kobs at 2500 uM GlcN6P; higher = faster cleavage; RNA array
Summary of the method: as §1

[4] = variants of: B1; assay: self-cleavage kobs at 10000 uM GlcN6P; higher = faster cleavage; RNA array
Summary of the method: as §1

[5] = variants of: B1; assay: KM; higher = weaker cofactor use; RNA array
Summary of the method: as §1

[6] = variants of: B1; assay: self-cleavage kobs at 40 uM GlcN6P; higher = faster cleavage; RNA array
Summary of the method: as §1

[7] = variants of: B1; assay: self-cleavage kobs at 640 uM GlcN6P; higher = faster cleavage; RNA array
Summary of the method: as §1

Row | Variant | kcat [1] | self-cleavage kobs at 160 uM GlcN6P [2] | self-cleavage kobs at 2500 uM GlcN6P [3] | self-cleavage kobs at 10000 uM GlcN6P [4] | KM [5] | self-cleavage kobs at 40 uM GlcN6P [6] | self-cleavage kobs at 640 uM GlcN6P [7]
1 | A48C G66A | 0.000159 ± 2.8e-05 s⁻¹ | < 1e-05 s⁻¹ | 8.27e-05 ± 1.8e-05 s⁻¹ | 0.000121 ± 1.4e-05 s⁻¹ | – | – | –
2 | G43U A52G | < 1e-05 s⁻¹ | < 1e-05 s⁻¹ | – | – | 5960 ± 590 µM | < 1e-05 s⁻¹ | < 1e-05 s⁻¹
3 | A39U U49G | 0.00055 ± 0.00012 s⁻¹ | – | 0.000231 ± 6.6e-05 s⁻¹ | 0.000461 ± 7.3e-05 s⁻¹ | – | – | 0.000168 ± 5.1e-05 s⁻¹
4 | C10G G59U | 3.49e-05 ± 2.3e-06 s⁻¹ | – | 2.34e-05 ± 6.6e-06 s⁻¹ | 3.25e-05 ± 8.1e-06 s⁻¹ | 1050 ± 290 µM | < 1e-05 s⁻¹ | –
5 | U65G C68U | 0.00167 ± 0.00057 s⁻¹ | 0.000159 ± 3.2e-05 s⁻¹ | 0.000758 ± 0.00013 s⁻¹ | 0.00155 ± 0.00018 s⁻¹ | – | 5.31e-05 ± 8.4e-06 s⁻¹ | 0.000304 ± 4.1e-05 s⁻¹
6 | U30C G62A | < 1e-05 s⁻¹ | – | – | – | – | – | < 1e-05 s⁻¹
7 | U65G U69G | 6.55e-05 ± 6.1e-06 s⁻¹ | 4.06e-05 ± 1.8e-05 s⁻¹ | 6.29e-05 ± 1.2e-05 s⁻¹ | 6.56e-05 ± 1.1e-05 s⁻¹ | – | – | 3.94e-05 ± 1.3e-05 s⁻¹
8 | C11A U54G | 0.000149 ± 2.7e-05 s⁻¹ | – | 7.77e-05 ± 1.3e-05 s⁻¹ | 0.000123 ± 1.4e-05 s⁻¹ | – | – | –
9 | G7A G38A | < 1e-05 s⁻¹ | – | – | – | – | – | –
10 | U45C | 0.00494 ± 0.00052 s⁻¹ | 0.000232 ± 9.5e-06 s⁻¹ | 0.00247 ± 6.8e-05 s⁻¹ | 0.00385 ± 9.4e-05 s⁻¹ | 2740 ± 390 µM | 7.81e-05 ± 1.8e-06 s⁻¹ | 0.000897 ± 2.2e-05 s⁻¹
11 | C61U C71G | < 1e-05 s⁻¹ | < 1e-05 s⁻¹ | – | – | – | – | –
12 | G13C U30C | 0.000129 ± 2e-05 s⁻¹ | – | 8.07e-05 ± 2e-05 s⁻¹ | – | 1470 ± 480 µM | < 1e-05 s⁻¹ | 4.05e-05 ± 1.7e-05 s⁻¹
13 | U47G U54A | 0.00987 ± 0.0039 s⁻¹ | – | 0.00522 ± 0.0019 s⁻¹ | 0.00946 ± 0.0015 s⁻¹ | – | 0.000306 ± 4.7e-05 s⁻¹ | 0.00157 ± 0.00052 s⁻¹
14 | U46G U47G | 0.00226 ± 0.00039 s⁻¹ | 0.000208 ± 5.4e-05 s⁻¹ | 0.00191 ± 0.00051 s⁻¹ | 0.00188 ± 0.00039 s⁻¹ | 1530 ± 410 µM | 6.82e-05 ± 2e-05 s⁻¹ | 0.000551 ± 0.00016 s⁻¹
15 | G41A A42C | 4.51e-05 ± 1.7e-05 s⁻¹ | – | 6.51e-05 ± 1.8e-05 s⁻¹ | 3.53e-05 ± 1.3e-05 s⁻¹ | – | – | –
16 | U56C G66A | 0.00312 ± 0.0012 s⁻¹ | 8.16e-05 ± 1.9e-05 s⁻¹ | 0.00117 ± 0.00022 s⁻¹ | 0.0022 ± 0.00026 s⁻¹ | – | 6.93e-05 ± 1.3e-05 s⁻¹ | 0.000501 ± 8.4e-05 s⁻¹
17 | A39C A48C | 7.62e-05 ± 2.8e-06 s⁻¹ | – | 3.1e-05 ± 1.1e-05 s⁻¹ | 5.69e-05 ± 9.4e-06 s⁻¹ | 3440 ± 350 µM | – | –

Source: the supplement of paper PMC7125110
